Assay results: the Human Domainome abundance scans (Beltran et al. 2025)

B1: Tesmin, residues 368 to 403; numbered along this chain, Q9Y4I5 (parent)
chain: KGCNCRRSGCLKNYCECYEAQIMCSSICKCIGCKNY

Variants of: B1
Assay: abundance fitness (aPCA) (normalised: wild type 0, dead -1); higher = more abundant; growth selection in yeast, the domain comes from the species named
Conditions: Homo sapiens

Abundance fitness of substitutions, site by site:
C28: T -0.14; L -0.738; E -0.157; W -0.7; Q -0.564; S -0.169; A -0.248; V -0.42; M -0.411; K -0.377; Y -0.973; D -0.3; G -0.219; R -0.575; P -0.195
K34: A 0.185; E 0.182; G 0.266; D 0.295; C 0.064; I -0.503; L 0.121
G32: R -0.249; P -0.082; S -0.087; E -0.033; C -0.592; A -0.196; T -0.655; L -0.96; V -0.443; Q -0.414; D -0.454; W -0.349
I27: E 0.207; A 0.162; M -0.014; L -0.089; Q 0.176; T 0.159; C -1.72; K 0.153; R 0.085; D 0.119; N 0.04; S 0.009; P 0.118; Y -0.431; V 0.112; W -0.703
C15: S -0.596; E -0.076; T -0.382; K -0.295; Y -0.658; R -0.378; Q -0.282; L -0.713; M -0.689; I -0.809; A -0.394; G -0.305; H -0.425; F -0.742; D -0.04; W -0.993; P -0.259; V -0.65
S26: D -0.101; A 0.05; T -0.095; E 0.228; M -0.384; G 0.089; L -0.559; P -0.624; V -0.159; W -1.91; Q 0.091; C -0.98; F -0.651; N -0.079; K 0.032; R -0.241
Y14: D 0.171; N 0.267; I -0.09; G 0.096; T -0.222; Q 0.007; W -0.01; R 0.01; P 0.145; A -0.253; K -0.02; C 0.14; M 0.153; V -0.082; S 0.047; E 0.013
C24: K 0.262; P -0.21; A -0.15; W -0.647; D -0.107; Q -0.072; T -0.294; V -0.421; L -0.402; S -0.201; G -0.008; E 0.051; M -0.378
E16: C -0.677; G -0.086; H -0.418; L -0.441; F -0.453; M -0.218; Y -0.577; A -0.256; V -0.329; S -0.57; K -0.502; R -0.341; T -0.39; W -0.466; P -0.327; Q -0.034; D -0.522; N -0.763
Q21: G -0.004; H -0.271; M -0.48; A -0.127; P -0.073; V -0.472; W -0.508; L -0.26; R 0.061; D -0.566; C -0.235; N -0.124; K -0.065; E 0.155; T -0.08
E19: A -0.107; L -0.281; Q -0.131; P -0.284; S -0.226; G -0.043; D -0.243; K -0.1; T -0.308; C -0.132; R -0.188; N -0.351; M -0.18; V -0.201; F -0.31
S25: H -0.269; L -0.415; F -0.711; W -0.45; D -0.334; K -0.196; E -0.315; C -0.393; A -0.051; M -0.324; V -0.509; P -0.521; T -0.168; G 0.093
I22: P -0.043; S -0.066; L -0.073; C -0.55; W -0.365; K -0.093; Q 0.329; R 0.021; G 0.268; M -0.423; T 0.109; F -0.088; N 0.551; A 0.004; E 0.004; V 0.048
Y18: I -0.318; G 0.034; R -0.153; T -0.082; L -0.353; P -0.066; D -0.088; M 0.098; H -0.016; A -0.03; Q 0.107; E 0.058; F -0.089; S -0.059; N 0.083; W -0.047; V -0.27; C -0.106
C17: Q -0.205; R -0.444; A -0.36; Y -0.72; E -0.465; K -0.337; V -0.415; L -0.288; T -0.689; M -0.575; P -0.312
C33: V -0.055; M -0.147; A -0.011; E 0.109; Q -0.362; D -0.064; K -0.123; R -0.245; W -0.449; G -0.025; H -0.106; L -0.232; S -0.121; T -0.14; P -0.014
K29: G 0.24; M -0.016; C -0.048; W -0.186; Q 0.18; P -0.091; H 0.419; N 0.054; I -0.334; T 0.024; V 0.011; E 0.238; S 0.051; R 0.034; D 0.171
N13: W -0.755; M -0.556; F -0.613; Y -0.51; P -0.258; E -0.061; I -0.398; H -0.871; L -0.266; T -0.297; G -0.045; C -0.558; R -0.218; S -0.181; D -0.092; Q -0.061; V -0.619; K -0.075
C30: H -0.498; I -0.945; G -0.29; E -0.226; A -0.252; K -0.249; T -0.468; Q -0.196; M -1.15; L -1; V -0.352; P -0.209; S -0.355; R -0.425
A20: L -0.199; Q -0.095; M -0.317; C -0.442; S -0.049; Y -0.367; G 0.065; P -0.292; E -0.082; T -0.196; W -0.295; V -0.202; K -0.337; R -0.038; I -0.696
M23: H -0.198; S -0.081; Q -0.016; P -0.136; L -0.462; T -0.419; D 0.152; E 0.106; R -0.075; A -0.18; W -0.283; V -0.1; K -0.057; G 0.127
I31: E 0.311; M 0.081; L -0.021; C -0.02; Y -0.322; S 0.147; N 0.083; Q 0.114; P 0.047; R 0.056; V 0.125; T 0.211; F -0.171; W -0.099; G 0.15; A 0.309; K -0.108
K12: Y -0.831; T -0.201; R -0.359; W -0.643; V -0.014; S -0.181
